Tests used:
[1] = molecular target: recombinant human tetranectin (TN), residue 22-202 with a C-terminal histidine tag (human) (UniProt P05452); test: OpenSPR; TN chip, HMGB1 200 nM, without mAb8 pre-treatment
[2] = molecular target: recombinant human tetranectin (TN), residue 22-202 with a C-terminal histidine tag (human) (UniProt P05452); test: OpenSPR; TN chip pre-treated with mAb8 (29.6 nM), HMGB1 200 nM
[3] = molecular target: recombinant human tetranectin (TN), residue 22-202 with a C-terminal histidine tag (human) (UniProt P05452); test: OpenSPR; TN chip with against without mAb8 (29.6 nM) pre-treatment
[4] = molecular target: recombinant human tetranectin (TN), residue 22-202 with a C-terminal histidine tag (human) (UniProt P05452); test: OpenSPR; TN on the chip, HMGB1 applied (FIG. 5A, Lower Panel, per paragraph 223)
[5] = molecular target: recombinant human tetranectin (TN), residue 22-202 with a C-terminal histidine tag (human) (UniProt P05452); test: OpenSPR; TN chip pre-treated with mAb8 (29.6 nM), HMGB1 at various concentrations
[6] = molecular target: recombinant human tetranectin (TN), residue 22-202 with a C-terminal histidine tag (human) (UniProt P05452); test: OpenSPR; TN immobilized on the chip, HMGB1 applied at 400, 200, 100 and 25 (no unit on the sheet) [A) lower panel]
[7] = molecular target: recombinant CBP-HMGB1 (rat HMGB1 with a calmodulin-binding peptide tag) (rat) (UniProt P63159); test: OpenSPR; HMGB1 immobilized on the chip, TN applied at 280, 93, 31 and 10 (no unit on the sheet) [A) upper panel]
recombinant CBP-HMGB1 (rat HMGB1 with a calmodulin-binding peptide tag) (rat), sequence (P63159 whole entry, form in doubt): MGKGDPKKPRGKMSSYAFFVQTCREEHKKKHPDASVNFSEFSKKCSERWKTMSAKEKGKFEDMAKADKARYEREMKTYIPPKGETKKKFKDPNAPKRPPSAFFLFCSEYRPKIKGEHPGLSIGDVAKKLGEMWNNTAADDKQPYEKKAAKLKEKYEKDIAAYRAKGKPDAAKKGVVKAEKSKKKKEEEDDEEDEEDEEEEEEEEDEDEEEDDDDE

[8] = molecular target: recombinant CBP-HMGB1 (rat HMGB1 with a calmodulin-binding peptide tag) (rat) (UniProt P63159); test: OpenSPR; TN or HMGB1 on the chip (His-tag or carboxyl groups); this end taken as HMGB1 on chip, TN applied (inferred, since 2.88 nM is tied to the TN chip at paragraph 223)

SPR response signal [1] [AU] | SPR response signal [2] [AU] | fold increase of KD [3] [fold] | Kd [4] [nM] | Kd [5] [nM] | Kd [6] [nM] | Kd [7] [nM] | Kd [8] [nM] | Substance
150 | 35 | 6 | 1.21 to 2.88 | 18.5 | 2.88 | – | – | recombinant CBP-HMGB1 (rat HMGB1 with a calmodulin-binding peptide tag) (from UniProt P63159 1-215)
– | – | – | – | – | – | 1.21 | 1.21 to 2.88 | recombinant human tetranectin (TN), residue 22-202 with a C-terminal histidine tag (from UniProt P05452 22-202)

— patent publication US20220281962A1
